Earlier results on one substance are cited in paper PMC3562316.

Usually Kd stands for the concentration at which binding is half-saturated.

The data set deals with IGF1R (Homo sapiens) (UniProt P08069).

For IGF-2 (from UniProt P01344), the Kd was 0.2 nM.
